According to PMC8240387 (2021):

Key:
soluble FcγRIIIa = soluble FcγRIIIa (UniProt P08637 17-208); test: SPR
[1] = biological target: recombinant, soluble HIV-1 UG37 gp140 (HIV-1 clade A strain 92UG037); test: SPR

Chain of soluble FcγRIIIa (P08637 17-208): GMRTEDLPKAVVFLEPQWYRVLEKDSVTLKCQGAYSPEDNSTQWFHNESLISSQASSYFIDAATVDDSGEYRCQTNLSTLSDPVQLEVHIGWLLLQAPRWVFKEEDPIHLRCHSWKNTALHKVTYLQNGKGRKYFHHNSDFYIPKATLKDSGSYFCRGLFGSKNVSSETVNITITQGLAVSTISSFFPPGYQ

B1: Mammalian cell-expressed N6 (mN6), broadly neutralising anti-HIV monoclonal antibody N6 expressed in HEK-293T cells (antibody)
chain 1: RAHLVQSGTAMKKPGASVRVSCQTSGYTFTAHILFWFRQAPGRGLEWVGWIKPQYGAVNFGGGFRDRVTLTRDVYREIAYMDIRGLKPDDTAVYYCARDRSYGDSSWALDAWGQGTTVVVSA
chain 2: YIHVTQSPSSLSVSIGDRVTINCQTSQGVGSDLHWYQHKPGRAPKLLIHHTSSVEDGVPSRFSGSGFHTSFNLTISDLQADDIATYYCQVLQFFGRGSRLHIK
modifications: N-glycosylated (size shift on PNGaseF digestion) | N-glycosylated (size shift on PNGaseF digestion)
**Q.** Which koff (soluble FcγRIIIa) does the source give for B1 here?
**A.** The koff was 0.17 s⁻¹.

**Q.** And the koff [1]?
**A.** Its koff is 0.000189 s⁻¹.

B2: Plant-expressed N6 (pN6), broadly neutralising anti-HIV monoclonal antibody N6 expressed in glycoengineered ΔXF N. benthamiana (antibody)
chain 1: B1 chain 1
chain 2: B1 chain 2
modifications: N-glycosylated: GnGn 81.67%, fucosylated 0.69%, no xylosylation, 6.48% non-glycosylated | N-glycosylated: mature complex-type glycans, α(1,3)-fucose 20.93%, no xylosylation, no high mannose …
**Q.** B2 was tested. Which koff (soluble FcγRIIIa) did it give?
**A.** Its koff is 0.016 s⁻¹.

**Q.** What about the koff [1] of the same binder?
**A.** The koff was 0.000115 s⁻¹.
